Where a chain is given by its changes, count along the chain named.
T1: recombinant human ADAMTS5 (R&D Systems cat #2198-AD) (human, UniProt Q9UNA0 262-622, limits assumed)
T1 sequence: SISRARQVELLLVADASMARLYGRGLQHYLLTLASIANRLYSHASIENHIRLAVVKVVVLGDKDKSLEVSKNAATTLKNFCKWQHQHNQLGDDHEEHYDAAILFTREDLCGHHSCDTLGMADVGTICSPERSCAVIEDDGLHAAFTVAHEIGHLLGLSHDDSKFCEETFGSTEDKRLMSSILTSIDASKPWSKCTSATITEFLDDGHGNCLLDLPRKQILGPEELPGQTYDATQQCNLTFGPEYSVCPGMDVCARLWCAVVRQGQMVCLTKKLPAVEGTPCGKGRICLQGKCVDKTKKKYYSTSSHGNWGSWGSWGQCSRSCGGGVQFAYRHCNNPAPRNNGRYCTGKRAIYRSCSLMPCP

T2: cynomolgus monkey recombinant ADAMTS5 (cynomolgus monkey, UniProt Q9UNA0 262-622 (human entry), limits assumed)
T2 construct: in house, HEK293, His tag in the entry; also called cyno ADAMTS5
T2 chain: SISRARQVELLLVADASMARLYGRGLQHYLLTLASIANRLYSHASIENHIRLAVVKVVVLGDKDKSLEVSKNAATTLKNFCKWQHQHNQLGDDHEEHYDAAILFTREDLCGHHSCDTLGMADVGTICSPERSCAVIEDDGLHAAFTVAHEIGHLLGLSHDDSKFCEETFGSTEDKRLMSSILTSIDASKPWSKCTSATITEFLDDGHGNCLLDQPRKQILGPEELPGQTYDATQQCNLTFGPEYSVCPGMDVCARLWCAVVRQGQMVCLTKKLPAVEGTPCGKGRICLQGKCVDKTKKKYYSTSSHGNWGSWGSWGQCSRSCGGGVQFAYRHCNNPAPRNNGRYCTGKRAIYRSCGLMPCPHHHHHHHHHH

T3: guinea pig recombinant ADAMTS5 (guinea pig)
T3 construct: in house, HEK293, His tag in the entry
T3 chain: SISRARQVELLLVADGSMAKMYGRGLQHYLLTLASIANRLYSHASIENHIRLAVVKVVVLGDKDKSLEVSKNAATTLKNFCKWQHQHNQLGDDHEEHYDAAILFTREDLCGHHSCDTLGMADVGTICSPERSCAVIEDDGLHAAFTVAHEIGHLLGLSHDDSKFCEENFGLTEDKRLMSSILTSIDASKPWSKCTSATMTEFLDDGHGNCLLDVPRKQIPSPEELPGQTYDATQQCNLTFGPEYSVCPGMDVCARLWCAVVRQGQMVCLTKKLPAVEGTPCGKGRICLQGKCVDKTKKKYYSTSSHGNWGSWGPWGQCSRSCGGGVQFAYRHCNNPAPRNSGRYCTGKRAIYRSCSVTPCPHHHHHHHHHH

T4: mouse recombinant ADAMTS5 (mouse, UniProt Q9R001 262-622, limits assumed)
T4 construct: in house, HEK293, His tag in the entry
T4 sequence: T3 chain with G16S, K20R, G61T, K65T, L171T, M199I, V214L, P220L, S221G, I286V

B1: Nanobody 2A12 (VHH)
VHH: EVQLVESGGGLVQAGGSLRLSCAASGRTFSSYAMGWFRQAPGKERDFVAGISRSAGRTYYVDSVKGRFTISRDSAKNTVYLQMNRLKPEDTAVYYCAADLDPNRIFSRDEAAYWGQGTLVTVSS
notes: tagged as tested (anti-Flag detection, IMAC); also called 02A12
B2: Nanobody 2F03 (VHH)
VHH: B1 VHH with F29V, Q39L, D46E, G56E, V64L, Q82H, D109E, A111Y
notes: tagged as tested (anti-Flag detection, IMAC); also called 02F03; 2F3

Columns and labels:
[1] = biological target: T1, recombinant human ADAMTS5 (R&D Systems …); experiment: cell-based or functional assay
[2] = biological target: T1, recombinant human ADAMTS5 (R&D Systems …); experiment: cell-based or functional assay; remark: listed apart in the source
[3] = biological target: T1, recombinant human ADAMTS5 (R&D Systems …); experiment: SPR kinetics, Biacore T100, ADAMTS5 immobilised
Method: For referencing, affinity for human ADAMTS5 was also determined. Thereto, rat and human ADAMTS5 were immobilized onto a CM5 chip via amine coupling, using EDC and NHS chemistry. Purified Nanobodies were injected for 2 minutes at different concentrations (between 1 and 1000 nM) and allowed to dissociate for 25 min at a flow rate of 45 μl/min. The kinetic constants were calculated from the sensorgrams using the BIAEvaluation software (1:1 interaction).

[4] = biological target: T1, recombinant human ADAMTS5 (R&D Systems …); experiment: SPR off-rate, Biacore T100, ADAMTS5 immobilised, experiment 1
Method: (§1) Species cross-reactivity was initially evaluated via SPR-based off-rate analysis on a Biacore T100 instrument. Nanobodies were tested for binding to human, cynomolgus monkey (“cyno”), guinea pig, mouse, and bovine ADAMTS5. To this end, recombinant ADAMTS5 was immobilized onto a CM5 chip via amine coupling using EDC and NHS. Purified Nanobodies were injected for 2 minutes at a concentration of 100 nM and allowed to dissociate for 15 min at a flow rate of 45 ul/min. Off-rate for each individual Nanobody was determined by fitting a 1:1 interaction model (Langmuir model) onto the individual dissociation curves using the BIA Evaluation software. As a reference, off-rates on human ADAMTS5 were determined in each experiment.

[5] = biological target: T2, cynomolgus monkey recombinant ADAMTS5; experiment: as above
Method: as §1

[6] = biological target: T3, guinea pig recombinant ADAMTS5; experiment: as above
Method: as §1

[7] = biological target: T1, recombinant human ADAMTS5 (R&D Systems …); experiment: SPR off-rate, Biacore T100, ADAMTS5 immobilised, experiment 2
Method: as §1

[8] = biological target: T4, mouse recombinant ADAMTS5; experiment: as above
Method: as §1

| Binder | FRET assay % inh, periplasmic extract [1] [%] | FRET assay vi (U/min), periplasmic extract [1] [U/min] | AlphaLISA IC50, - HSA [2] [nM] | Kd [3] [nM] | koff [4] [s⁻¹] | koff [5] [s⁻¹] | koff [6] [s⁻¹] | koff [7] [s⁻¹] | koff [8] [s⁻¹] |
| --- | --- | --- | --- | --- | --- | --- | --- | --- | --- |
| B1 | 104 | -1 | 0.15 | 1.9 | 0.00014 | 0.0001 | 0.00012 | 0.00023 | 0.00044 |
| B2 | 103 | -1 | 0.075 | 1.6 | 3.3e-05 | 2.2e-05 | 3.4e-05 | 6.5e-05 | 0.00029 |

— patent publication US20200317802A1 (Merck KGaA, published 2020)
